Positions count from the first letter of the chain named. Blank lines part the entries; values can stand above or below the binder they belong to.
Experiments:
Experiment in all cases: ELISA, mAb at 10 nM
[1] = target: hu-M-IL1RAP-D1 construct, positions S21-Q133 (human)
[2] = target: hu-M-IL1RAP-D3 construct, positions K238-T367 (human)
[3] = target: hu-M-IL1RAP-D1D2 construct, positions S21-P237 (human)
Sequence of hu-M-IL1RAP-D1D2 construct, positions S21-P237 (human) (chain, as listed by the source limits assumed): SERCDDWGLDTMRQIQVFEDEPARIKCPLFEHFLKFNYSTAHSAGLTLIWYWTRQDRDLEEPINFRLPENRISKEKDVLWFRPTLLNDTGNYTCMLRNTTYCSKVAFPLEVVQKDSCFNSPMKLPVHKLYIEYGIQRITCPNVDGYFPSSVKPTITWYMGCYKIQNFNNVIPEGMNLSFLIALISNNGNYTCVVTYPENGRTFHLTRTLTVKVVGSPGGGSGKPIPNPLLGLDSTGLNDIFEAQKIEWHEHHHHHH

Sequence of hu-M-IL1RAP-D1 construct, positions S21-Q133 (human) (chain, as listed by the source limits assumed): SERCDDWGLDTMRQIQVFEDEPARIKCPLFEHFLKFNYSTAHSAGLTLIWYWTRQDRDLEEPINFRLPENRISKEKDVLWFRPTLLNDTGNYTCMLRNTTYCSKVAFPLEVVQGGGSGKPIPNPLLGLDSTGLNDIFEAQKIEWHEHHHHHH
Sequence of hu-M-IL1RAP-D3 construct, positions K238-T367 (human) (chain, as listed by the source limits assumed): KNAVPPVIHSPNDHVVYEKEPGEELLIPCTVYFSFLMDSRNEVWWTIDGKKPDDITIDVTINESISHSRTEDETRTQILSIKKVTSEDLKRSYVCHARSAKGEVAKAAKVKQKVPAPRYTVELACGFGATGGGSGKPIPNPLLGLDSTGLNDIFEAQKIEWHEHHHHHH

B1: 8H1 (purified mAb from hybridoma 8H1) (antibody, V domains shown)
VH: QVQLQQSGPELVKSGASVRISCKASGYAFSGSWMNWVKQRPGKGLEWIGRIYPGDGNTNYNGKFKDKATLTADKSSSTAFMQLSSLTSEDSAVYFCARDYYLFYFDYWGQGTTLTVSS
VL: NIVMTQTPKFLPVAAEDRVIITCKASQDVSNEVAWYQQKPGQSPKLLMYYASNRYTGVPDRFTGSGSGTDFTFTISSVQVEDLAVYFCQQHYSSPLTFGAGTKLELK
A450 [1]: 0.045 A450
A450 [2]: 0.045 A450

B4: 9D5 (purified mAb from hybridoma 9D5) (antibody, V domains shown)
VH: QVQLQQSGAELARPGASVKFSCKASGYTFTSYWMQWVKQRPGQGLEWIGTIYPGDGNTRYTQKFKGKATLTADKSSSTAYMQLSGLASEDSAVYYCARGYFGNLVFDVWGAGTTVTVSS
VL: DIKMTQSPSSMYASLGERVTITCKASQDINTYLSWFLQKPGKSPKTLIYRADRLVDGVPSRFSGGGSGQDYSLTISSLEYEDLGIYYCLQYDEFPYTFGSGTKLEIK
A450 [1]: 0.047 A450
A450 [2]: 0.045 A450

B5: 10A11 (purified mAb from hybridoma 10A11) (antibody, V domains shown)
VH: EVQLQQSGAELVKPGASVRLSCTSSGFNIKDYFMHWVKQRTEQGLEWVGRIDPEDGETQYAPNFQDKATITVDTSSNTVYLQLSSLTSEDTAVYYCFRPLYYGNSPWFAYWGQGTLVTVSP
VL: DIQMTQTTSSLSASLGDRVTISCRASQDISNYLNWYQQKPDGTVKLLIYYTSTLHSGVPSRFSGSGSGTDYSLTISNLEPEDIATYYCHQYSKFPPTFGSGTKLEIK
A450 [3]: 0.046 A450
A450 [1]: 0.046 A450

Other lines, results leading:

A450 [3]: 0.048 A450
A450 [1]: 0.048 A450
B2: 11C5(Hy) (purified mAb from the 11C5 hybridoma) (antibody, V domains shown)
VH: EVQLVESGGGLVKPGGSLKLSCAASGFTFSNYAMSWVRQTPEKRLEWVATVTEGGDYNYCLDDVKGRFTISRDNANDNLYLQMSHLKSEDSARYYCARDRWPYFFDYWGQGTTLTVSS
VL: DIQMTQSPASLSVSVGETVTITCRASENIYSNLAWYQQKQGRSPQLLVYGAKNLADGVPSRFSGSGSGTQYSLNINSLQSEDFGTYYCQHFWTTPRTFGGGTKLEIK

A450 [3]: 0.044 A450
A450 [1]: 0.046 A450
B3: 13D8 (purified mAb from hybridoma 13D8) (antibody, V domains shown)
VH: EVQLVESGGGLVKPGGSLKLSCTASGFTFSNYAMSWVRQTPEKRLEWVATISDGGNYTYYPDNVKGRFTISRDIAKNNLYLQMSHLKSEDTAMYYCARDRWPYFFDFWGQGTTLTVSS
VL: B2 VL with E27D, Q38E, R42K, K52T, N74K, T85S, T97S, I106L
